{
  "source": "paper PMC4643982",
  "target": "T1, EutR::MBP (Salmonella enterica serovar Typhimurium SL1344) (UniProt Q9ZFU7)",
  "T1 sequence": "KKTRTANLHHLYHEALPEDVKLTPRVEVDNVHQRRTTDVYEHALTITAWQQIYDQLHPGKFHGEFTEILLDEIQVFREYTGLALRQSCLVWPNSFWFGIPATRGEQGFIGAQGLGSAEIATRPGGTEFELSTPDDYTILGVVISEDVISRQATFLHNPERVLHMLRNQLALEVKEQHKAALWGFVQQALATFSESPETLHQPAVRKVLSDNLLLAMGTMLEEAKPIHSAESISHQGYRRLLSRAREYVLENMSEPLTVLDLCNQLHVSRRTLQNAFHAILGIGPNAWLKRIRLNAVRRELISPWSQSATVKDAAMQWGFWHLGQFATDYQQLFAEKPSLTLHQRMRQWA",
  "test": "competition",
  "conditions": "60 mM HEPES pH 7.5, 300 mM KCl, 25 mM MgCl2, 5 mM EDTA, 3 mM DTT, 500 ug/ml BSA, 50 ng poly-dIdC, 1 mM ethanolamine, 150 nM vitamin B12; 25 min at 25 C; 6% …",
  "data": [
    {"sequence": "CCGGAATTGCCAGCTGGGGCGCCCTCTGGTAAGGTTGGGAAGCCCTGCAAAGTAAACTGGATGGCTTTCTTGCCGCCAAGGATCTGATGGCGCAGGGGATCAAGATCTGATCAAGAGACAGGATGAGGATCGTTTCGCATGATTGAACAAGA (double strand) [kan promoter probe]", "values": [
      {"measurement": "binding", "result": "no binding"}
    ]}
  ]
}
